# Data reported in publication PMC6698648, “A Fanci knockout mouse model reveals common and distinct functions for FANCI and FANCD2” (Nucleic Acids Research, 2019).
# T1: Human RAD51 (human, UniProt Q06609 1-339)
# T1 sequence (looked up): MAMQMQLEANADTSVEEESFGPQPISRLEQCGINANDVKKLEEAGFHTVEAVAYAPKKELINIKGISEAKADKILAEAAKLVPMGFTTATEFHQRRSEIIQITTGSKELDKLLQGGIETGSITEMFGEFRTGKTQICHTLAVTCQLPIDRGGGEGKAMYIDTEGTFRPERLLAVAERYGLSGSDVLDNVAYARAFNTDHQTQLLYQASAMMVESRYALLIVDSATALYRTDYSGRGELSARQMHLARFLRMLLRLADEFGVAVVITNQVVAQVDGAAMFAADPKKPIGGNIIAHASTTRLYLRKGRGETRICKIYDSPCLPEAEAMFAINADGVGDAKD
# Molecular target: T1, Human RAD51
# Assay: cell-based or functional assay
binder,measurement,value
"FANCI (natural protein, UniProt Q9NVI1 1-1328, looked up) MDQKILSLAAEKTADKLQEFLQTLREGDLTNLLQNQAVKGKVAGALLRAIFKGSPCSEEAGTLRRRKIYTCCIQLVESGDLQKEIASEIIGLLMLEAHHFPGPLLVELANEFISAVREGSLVNGKSLELLPIILTALATKKENLAYGKGVLSGEECKKQLINTLCSGRWDQQYVIQLTSMFKDVPLTAEEVEFVVEKALSMFSKMNLQEIPPLVYQLLVLSSKGSRKSVLEGIIAFFSALDKQHNEEQSGDELLDVVTVPSGELRHVEGTIILHIVFAIKLDYELGRELVKHLKVGQQGDSNNNLSPFSIALLLSVTRIQRFQDQVLDLLKTSVVKSFKDLQLLQGSKFLQNLVPHRSYVSTMILEVVKNSVHSWDHVTQGLVELGFILMDSYGPKKVLDGKTIETSPSLSRMPNQHACKLGANILLETFKIHEMIRQEILEQVLNRVVTRASSPISHFLDLLSNIVMYAPLVLQSCSSKVTEAFDYLSFLPLQTVQRLLKAVQPLLKVSMSMRDCLILVLRKAMFANQLDARKSAVAGFLLLLKNFKVLGSLSSSQCSQSLSVSQVHVDVHSHYNSVANETFCLEIMDSLRRCLSQQADVRLMLYEGFYDVLRRNSQLANSVMQTLLSQLKQFYEPKPDLLPPLKLEACILTQGDKISLQEPLDYLLCCIQHCLAWYKNTVIPLQQGEEEEEEEEAFYEDLDDILESITNRMIKSELEDFELDKSADFSQSTSIGIKNNICAFLVMGVCEVLIEYNFSISSFSKNRFEDILSLFMCYKKLSDILNEKAGKAKTKMANKTSDSLLSMKFVSSLLTALFRDSIQSHQESLSVLRSSNEFMRYAVNVALQKVQQLKETGHVSGPDGQNPEKIFQNLCDITRVLLWRYTSIPTSVEESGKKEKGKSISLLCLEGLQKIFSAVQQFYQPKIQQFLRALDVTDKEGEEREDADVSVTQRTAFQIRQFQRSLLNLLSSQEEDFNSKEALLLVTVLTSLSKLLEPSSPQFVQMLSWTSKICKENSREDALFCKSLMNLLFSLHVSYKSPVILLRDLSQDIHGHLGDIDQDVEVEKTNHFAIVNLRTAAPTVCLLVLSQAEKVLEEVDWLITKLKGQVSQETLSEEASSQATLPNQPVEKAIIMQLGTLLTFFHELVQTALPSGSCVDTLLKDLCKMYTTLTALVRYYLQVCQSSGGIPKNMEKLVKLSGSHLTPLCYSFISYVQNKSKSLNYTGEKKEKPAAVATAMARVLRETKPIPNLIFAIEQYEKFLIHLSKKSKVNLMQHMKLSTSRDFKIKGNILDMVLREDGEDENEEGTASEHGGQNKEPAKKKRKK","RAD51-mediated D-loop formation, RAD51 at 400 nM with added FANCI (up to 100 nM), fold activation relative to RAD51 alone",8 fold
